In assay [1] the target is T1, botulinum neurotoxin E (Clostridium botulinum, UniProt Q00496 2-1251).
T1 sequence: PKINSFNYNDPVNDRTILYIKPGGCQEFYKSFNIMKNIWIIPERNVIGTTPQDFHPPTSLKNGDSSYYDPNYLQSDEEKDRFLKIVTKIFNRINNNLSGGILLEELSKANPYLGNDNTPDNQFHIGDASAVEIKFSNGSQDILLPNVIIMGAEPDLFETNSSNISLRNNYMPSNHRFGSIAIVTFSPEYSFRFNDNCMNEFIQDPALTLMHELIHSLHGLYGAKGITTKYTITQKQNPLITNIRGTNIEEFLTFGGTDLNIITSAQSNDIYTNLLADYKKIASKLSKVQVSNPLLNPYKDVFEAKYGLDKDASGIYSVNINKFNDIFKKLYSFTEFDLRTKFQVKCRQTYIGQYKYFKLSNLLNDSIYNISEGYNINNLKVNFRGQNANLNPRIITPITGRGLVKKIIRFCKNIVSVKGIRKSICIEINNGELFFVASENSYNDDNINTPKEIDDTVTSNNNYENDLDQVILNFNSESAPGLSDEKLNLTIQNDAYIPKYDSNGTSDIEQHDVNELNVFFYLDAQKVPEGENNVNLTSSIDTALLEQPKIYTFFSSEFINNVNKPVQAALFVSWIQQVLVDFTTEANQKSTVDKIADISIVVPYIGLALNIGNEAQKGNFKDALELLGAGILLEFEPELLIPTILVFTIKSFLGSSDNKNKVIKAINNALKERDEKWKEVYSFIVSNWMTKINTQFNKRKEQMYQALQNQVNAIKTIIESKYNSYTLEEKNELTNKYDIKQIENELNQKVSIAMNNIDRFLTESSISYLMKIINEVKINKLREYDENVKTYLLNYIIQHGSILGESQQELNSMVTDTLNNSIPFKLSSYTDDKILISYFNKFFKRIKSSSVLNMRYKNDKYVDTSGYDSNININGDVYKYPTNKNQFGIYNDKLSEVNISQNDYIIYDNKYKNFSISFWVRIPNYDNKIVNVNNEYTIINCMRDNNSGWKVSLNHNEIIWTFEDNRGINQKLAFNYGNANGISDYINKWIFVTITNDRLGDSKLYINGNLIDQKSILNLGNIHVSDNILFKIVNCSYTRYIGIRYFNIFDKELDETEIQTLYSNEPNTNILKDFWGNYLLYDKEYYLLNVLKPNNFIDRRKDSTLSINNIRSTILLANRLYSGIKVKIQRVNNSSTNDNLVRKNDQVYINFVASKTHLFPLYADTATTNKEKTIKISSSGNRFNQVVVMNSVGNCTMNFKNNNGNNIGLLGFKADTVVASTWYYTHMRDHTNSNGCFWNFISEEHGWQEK
Put plainly: GST pull-down with and without gangliosides, immunoblot.

Assay [2] has as its target botulinum neurotoxin A (Clostridium botulinum, UniProt P0DPI0 2-1296). The assay is described as above.

Chain of botulinum neurotoxin A (P0DPI0 2-1296 limits assumed): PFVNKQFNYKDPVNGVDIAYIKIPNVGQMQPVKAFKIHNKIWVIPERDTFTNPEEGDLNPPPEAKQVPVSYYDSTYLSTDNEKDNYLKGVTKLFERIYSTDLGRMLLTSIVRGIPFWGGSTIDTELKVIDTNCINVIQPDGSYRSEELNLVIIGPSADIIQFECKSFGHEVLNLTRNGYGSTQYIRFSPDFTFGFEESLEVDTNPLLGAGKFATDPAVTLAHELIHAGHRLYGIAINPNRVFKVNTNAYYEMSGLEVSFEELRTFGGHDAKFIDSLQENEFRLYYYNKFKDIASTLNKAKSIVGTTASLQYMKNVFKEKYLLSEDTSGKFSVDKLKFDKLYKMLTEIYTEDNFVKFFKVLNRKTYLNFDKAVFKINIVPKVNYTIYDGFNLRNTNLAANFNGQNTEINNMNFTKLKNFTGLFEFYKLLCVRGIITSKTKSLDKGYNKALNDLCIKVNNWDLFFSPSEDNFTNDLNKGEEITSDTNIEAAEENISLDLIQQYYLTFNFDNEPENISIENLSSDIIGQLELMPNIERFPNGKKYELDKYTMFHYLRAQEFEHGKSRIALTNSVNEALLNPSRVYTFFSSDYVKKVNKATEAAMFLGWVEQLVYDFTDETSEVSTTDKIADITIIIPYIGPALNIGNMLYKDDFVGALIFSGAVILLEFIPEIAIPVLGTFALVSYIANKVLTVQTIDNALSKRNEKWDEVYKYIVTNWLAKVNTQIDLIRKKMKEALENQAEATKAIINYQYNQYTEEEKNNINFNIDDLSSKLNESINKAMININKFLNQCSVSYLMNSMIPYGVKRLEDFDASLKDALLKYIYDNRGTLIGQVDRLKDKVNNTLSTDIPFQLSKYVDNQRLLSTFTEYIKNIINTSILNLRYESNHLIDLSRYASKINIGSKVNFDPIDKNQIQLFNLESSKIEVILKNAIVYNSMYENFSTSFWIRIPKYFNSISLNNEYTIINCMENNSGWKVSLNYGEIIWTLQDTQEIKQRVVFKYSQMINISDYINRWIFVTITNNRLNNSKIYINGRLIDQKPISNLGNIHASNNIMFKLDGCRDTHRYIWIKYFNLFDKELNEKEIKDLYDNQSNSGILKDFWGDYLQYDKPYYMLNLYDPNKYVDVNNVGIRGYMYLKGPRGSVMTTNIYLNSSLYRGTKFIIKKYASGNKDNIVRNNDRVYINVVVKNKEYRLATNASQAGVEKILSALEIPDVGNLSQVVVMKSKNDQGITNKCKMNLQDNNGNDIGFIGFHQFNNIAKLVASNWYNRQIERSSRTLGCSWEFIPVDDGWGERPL

B1: GST fusion of rat synaptotagmin I lacking the C2B domain (receptor)
chain: MVSASHPEALAAPVTTVATLVPHNATEPASPGEGKEDAFSKLKQKFMNELHKIPLPPWALIAIAIVAVLLVVTCCFCVCKKCLFKKKNKKKGKEKGGKNAINMKDVKDLGKTMKDQALKDDDAETGLTDGEEKEEPKEEEKLGKLQYSLDYDFQNNQLLVGIIQAAELPALDMGGTSDPYVKVFLLPEKKKKFETKVHRKTLNPVFNEQFTFKVPYSELGGKTLVMAVYDFDRFSKHDIIGEFKVPMNTVDFGHVTEEWRDLQSA
On to B1, for which the binding result in assay [1] and in assay [2] was “no binding (tested: 30 nM; also 300 nM (data not shown))” each time.

B2: GST fusion of rat synaptotagmin IV lacking the C2B domain (receptor)
chain: MAPITTSRVEFDEIPTVVGIFSAFGLVFTVSLFAWICCQRRSAKSNKTPPYKFVHVLKGVDIYPENLSSKKKFGGDDKSEAKRKAALPNLSLHLDLEKRDLNGNFPKTNPKAGSSSDLENVTPKLFPETEKEAVSPESLKSSTSLTSEEKQEKLGTLFLSLEYNFEKKAFVVNIKEAQGLPAMDEQSMTSDPYIKMTILPEKKHKVKTRVLRKTLDPVFDETFTFYGVPYPHIQELSLHFTVLSFDRFSRDDVIGEVLVPLSGIELSDGKMLMTREIIKR
In the case of B2, the binding result in assay [1] and in assay [2] was “no binding (tested: 30 nM; also 300 nM (data not shown))” in each case.

B3: GST fusion of mouse synaptotagmin II lacking the C2B domain (residues 1-267) (receptor)
chain: MRNIFKRNQEPNVAPATTTATMPLAPVAPADNSTESTGPGESQEDMFAKLKEKFFNEINKIPLPPWALIAMAVVAGLLLLTCCFCICKKCCCKKKKNKKEKGKGMKNAMNMKDMKGGQDDDDAETGLTEGEGEGEEEKEPENLGKLQFSLDYDFQANQLTVGVLQAAELPALDMGGTSDPYVKVFLLPDKKKKYETKVHRKTLNPAFNETFTFKVPYQELAGKTLVMAIYDFDRFSKHDIIGEVKVPMNTVDLGQPIEEWRDLQGGE
With B3, the binding result in assay [1] and in assay [2] was “no binding (tested: 30 nM; also 300 nM (data not shown))” throughout.
